From publication PMC9404457 (Nature, 2022)

Biological target: T1, human FLAG-tagged PORCN (isoform B) (Homo sapiens, PORCN isoform B (Q9H237-2), strain)
T1 chain: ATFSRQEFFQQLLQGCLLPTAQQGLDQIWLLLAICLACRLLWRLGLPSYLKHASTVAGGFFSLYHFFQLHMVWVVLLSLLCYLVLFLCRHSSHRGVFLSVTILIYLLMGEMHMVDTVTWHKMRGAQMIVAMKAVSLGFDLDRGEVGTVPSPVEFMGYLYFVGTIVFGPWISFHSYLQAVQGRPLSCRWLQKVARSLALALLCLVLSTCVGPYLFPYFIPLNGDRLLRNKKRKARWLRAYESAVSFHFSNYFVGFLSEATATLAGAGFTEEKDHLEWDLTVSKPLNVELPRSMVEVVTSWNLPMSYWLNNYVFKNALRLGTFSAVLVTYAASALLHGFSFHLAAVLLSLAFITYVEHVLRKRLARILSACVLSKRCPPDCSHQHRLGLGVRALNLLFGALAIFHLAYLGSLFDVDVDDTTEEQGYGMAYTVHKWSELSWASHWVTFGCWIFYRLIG
Test: SEC

B1: Fab^2C11 (Fab, V domains shown)
VH: EIQLQQSGAELVKPGASVKMSCKVSGYSFTGYNMNWVKQSHGKSLEWIGNINPYYVSTNYNQKFTGKATFTVDRSSSTAYMQLDSLTSEDSAVYYCARSYGSSHTFAYWGQGTLVTVSS
VL: DIHMTQSPASLSAFVGETVTITCRTSENIFSYLAWYQQKQGKSPQLLVYNAKTLTSGVPSRFSGSGSGTQFSLKINSLQPEDFGSYYCQHHYGSPYTFGGGTKLEIK
Q: Does B1 bind?
A: binds
